Assay results as given in publication PMC3326326.
Read-outs that look alike come from different tables or passages of the source.

What was measured:
[1] = target: penta-His-tagged PfAlba3 (Plasmodium falciparum (3D7)); assay: AUC
[2] = target: T1, PfAlba4 (Plasmodium falciparum 3D7, UniProt A0A5K1K8Y8 1-372); assay: EMSA
T1 sequence: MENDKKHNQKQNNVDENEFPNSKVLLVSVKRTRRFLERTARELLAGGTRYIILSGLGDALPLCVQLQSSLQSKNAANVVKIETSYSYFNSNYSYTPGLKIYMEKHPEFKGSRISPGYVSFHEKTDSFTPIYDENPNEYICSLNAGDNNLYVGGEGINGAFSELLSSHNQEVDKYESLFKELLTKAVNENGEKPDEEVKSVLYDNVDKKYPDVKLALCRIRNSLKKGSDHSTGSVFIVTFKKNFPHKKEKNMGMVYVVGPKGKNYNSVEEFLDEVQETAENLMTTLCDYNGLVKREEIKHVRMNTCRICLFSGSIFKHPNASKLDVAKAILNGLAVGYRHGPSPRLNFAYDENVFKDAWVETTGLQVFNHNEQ

[3] = target: T2, PfAlba2 (Plasmodium falciparum 3D7, UniProt Q8IDN4 1-211); assay: EMSA
T2 sequence: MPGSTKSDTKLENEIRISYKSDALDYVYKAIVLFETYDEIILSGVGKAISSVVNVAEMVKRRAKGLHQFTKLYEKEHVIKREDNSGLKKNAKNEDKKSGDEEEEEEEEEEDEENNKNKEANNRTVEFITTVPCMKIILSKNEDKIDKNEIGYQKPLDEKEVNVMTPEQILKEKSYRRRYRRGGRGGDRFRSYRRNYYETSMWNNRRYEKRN

[4] = target: T1, PfAlba4; assay: competition
[5] = target: T2, PfAlba2; assay: EMSA; remark: listed apart in the source
[6] = target: T3, PfAlba3 (Plasmodium falciparum 3D7, UniProt Q8IJX8 1-107); assay: EMSA
T3 sequence: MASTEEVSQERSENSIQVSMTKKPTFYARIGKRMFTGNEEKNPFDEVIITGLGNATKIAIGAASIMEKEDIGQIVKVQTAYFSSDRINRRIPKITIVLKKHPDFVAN

[7] = target: T3, PfAlba3; assay: EMSA; remark: listed apart in the source
[8] = target: T1, PfAlba4; assay: EMSA; remark: listed apart in the source
[9] = target: T2, PfAlba2; assay: EMSA; remark: listed apart in the source
[10] = target: T4, PfAlba1 (Plasmodium falciparum 3D7, UniProt Q8IAX8 1-248); assay: EMSA
T4 sequence: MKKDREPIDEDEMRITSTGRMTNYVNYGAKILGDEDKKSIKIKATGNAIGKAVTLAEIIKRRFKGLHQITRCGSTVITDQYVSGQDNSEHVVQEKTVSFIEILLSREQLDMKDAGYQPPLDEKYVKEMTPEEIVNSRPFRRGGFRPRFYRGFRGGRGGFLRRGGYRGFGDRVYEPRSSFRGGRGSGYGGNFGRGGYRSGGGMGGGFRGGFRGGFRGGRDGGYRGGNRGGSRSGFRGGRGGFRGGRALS

[11] = target: T1, PfAlba4; assay: competition; remark: listed apart in the source
[12] = target: T1, PfAlba4; assay: competition; remark: listed apart in the source

In the case of “penta-His-tagged PfAlba3 (natural protein)”, the stoichiometry N [1] is reported as 2.

B1: polyU 22-mer (ssRNA)
RNA: UUUUUUUUUUUUUUUUUUUUUU
B1: binds [2]; binds [3].

B2: HSP70 (dsDNA)
DNA 1: GCTAGTGCAAAAGGTTCAAAACCAAATTTACCAGAATCCAAT
DNA 2: ATTGGATTCTGGTAAATTTGGTTTTGAACCTTTTGCACTAGC
B2: binds [4].

B3: Actin-II (dsDNA)
DNA 1: TCTGAAGAAGCTGTTGCTTTAGTAGTTGATAATGGAAGTGGT
DNA 2: ACCACTTCCATTATCAACTACTAAAGCAACAGCTTCTTCAGA
B3: binds [4].

B4: TARE6 (79 bp) (dsDNA)
DNA 1: CCCAAGCTTACTTATATTAGGACCTATATTAGTTATCTGAGGACCTATATTACTTATTTTAGGACCTATATTGAATTCC
DNA 2: GGAATTCAATATAGGTCCTAAAATAAGTAATATAGGTCCTCAGATAACTAATATAGGTCCTAATATAAGTAAGCTTGGG
B4: binds [5]; binds [6].

B5: polyA 22-mer (ssRNA)
RNA: AAAAAAAAAAAAAAAAAAAAAA
B5: binds [7]; binds [8]; binds [9]. B5: binds [10].

B6: polyA 22-mer, unlabeled (ssRNA)
RNA: AAAAAAAAAAAAAAAAAAAAAA
B6: binds [11].

B7: TARE6 fragment 42 bp (F1) (dsDNA)
DNA 1: CCCAAGCTTACTTATATTAGGACCTATATTAGTTATCTGAGG
DNA 2: CCTCAGATAACTAATATAGGTCCTAATATAAGTAAGCTTGGG
B7: binds [12].

B8: Scr F1 (dsDNA)
DNA 1: GTACTTACTCTAATCTAGTCGTAGTATGTATGCCTCAATGAA
DNA 2: TTCATTGAGGCATACATACTACGACTAGATTAGAGTAAGTAC
B8: binds [4].
